The values that follow come from patent US20160083711.

The subject of the series is fluorogenic peptide (MCA)Lys-Lys-Pro-Ala-Glu-Phe-Phe-Ala-Leu-Lys(DNP).

native cardosin B, sequence (chain, as listed by the source): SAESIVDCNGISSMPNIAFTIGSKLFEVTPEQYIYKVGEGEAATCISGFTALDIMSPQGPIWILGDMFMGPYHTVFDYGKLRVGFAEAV

As usually defined, the Km is the concentration of substrate that gives half-maximal velocity. Usually kcat stands for the number of substrate molecules converted per active site and unit of time at saturation. For orientation: kcat/Km means the turnover number divided by the Michaelis constant. As for native cardosin B, the Km turned out to be 1.4 µM, the VMax is 6.36e-06 µmol/s, the catalytic constant (kcat) was determined as 24 s⁻¹ and the kcat/Km was determined as 1.71e+07 M⁻¹ s⁻¹.
